Reference: patent publication US6458943 (INSTITUT NATIONAL DE LA SANTE ET DE LA RECHERCHE MEDICALE, dated 2002)

B1: in vitro-translated 35S-labelled hD54-ins2 (pTL1hD54-ins2) (other)
chain: MDSAGQDINLNSPNKGLLSDSMTDVPVDTGVAARTPAVEGLTEAEEEELRAELTKVEEEIVTLRQVLAAKEKHCGELKRRLGLSTLGELKQNLSRSWHDVQVSSAYKKTQETLSQAGQKTSAALSTVGSAISRKLGDMRNSATFKSFEDRVGTIKSKVVGDRENGSDNLPSSAGSGDKPLSDPAPF
modifications: 35S-methionine label
B2: in vitro-translated 35S-labelled mD52 (pTL1mD52) (other)
chain: MDRGEQGLLKTEPVAEEGEDAVTMLSAPEALTEEEQEELRRELTKVEEEIQTLSQVLAAKEKHLAELKRKLGISSLQEFKQNIAKGWQDVTATNAYKKTSETLSQAGQKASAAFSSVGSVITKKLEDVKNSPTFKSFEEKVENLKSKVGGAKPAGGDFGEVLNSTANATSTMTTEPPPEQMTESP
modifications: 35S-methionine label
B3: in vitro-translated 35S-labelled hD52 (pTL1hD52) (other)
chain: MDRGEQGLLRTDPVPEEGEDVAATISATETLSEEEQEELRRELAKVEEEIQTLSQVLAAKEKHLAEIKRKLGINSLQELKQNIAKGWQDVTATSAYKKTSETLSQAGQKASAAFSSVGSVITKKLEDVKNSPTFKSFEEKVENLKSKVGGTKPAGGDFGEVLNSAANASATTTEPLPEKTQESL
modifications: 35S-methionine label
B4: +5 hD53 library interactor (novel hD53 isoform, pAD-GAL4 clone) (other)
chain: PSALFGGANFNQSGNIADSSLSFTFTNSSNGPNLITTQTNSQALSQPIASSNVHDNFMNNEITASKIDDGNNSKPLSPGWTDQTAYNAFGITTGMFNTTTMDDVYNYLFDDEDTPPNPKKESSWLPWSEVLHRPWRNHPICLLETEPLQGTDEDAVASADFSSMLSEEEKEELKAELVQLEDEITTLRQVLSAKERHLVEIKQKLGMNLMNELKQNFSKSWHDMQTTTAYKKTHETLSHAGQKATAAFSNVGTAISKKFGDMRRK
notes: range 761-881; also called nt 1 (Ser^1)
B5: hD52 interactor (GAL4 activation domain fusion, pAD-GAL4hD52) (other)
chain: PSALFGGANFNQSGNIADSSLSFTFTNSSNGPNLITTQTNSQALSQPIASSNVHDNFMNNEITASKIDDGNNSKPLSPGWTDQTAYNAFGITTGMFNTTTMDDVYNYLFDDEDTPPNPKKEMDRGEQGLLRTDPVPEEGEDVAATISATETLSEEEQEELRRELAKVEEEIQTLSQVLAAKEKHLAEIKRKLGINSLQELKQNIAKGWQDVTATSAYKKTSETLSQAGQKASAAFSSVGSVITKKLEDVKNSPTFKSFEEKVENLKSKVGGTKPAGGDFGEVLNSAANASATTTEPLPEKTQESL
notes: range 761-881; also called hD52^c
B6: hD53 library interactor, pAD-GAL4 clone beginning at nt 111 of the hD53 cDNA (<Met1) (other)
chain: PSALFGGANFNQSGNIADSSLSFTFTNSSNGPNLITTQTNSQALSQPIASSNVHDNFMNNEITASKIDDGNNSKPLSPGWTDQTAYNAFGITTGMFNTTTMDDVYNYLFDDEDTPPNPKKEMEAQAQGLLETEPLQGTDEDAVASADFSSMLSEEEKEELKAELVQLEDEITTLRQVLSAKERHLVEIKQKLGMNLMNELKQNFSKSWHDMQTTTAYKKTHETLSHAGQKATAAFSNVGTAISKKFGDMSYSIRHSISMPAMRNSPTFKSFEERVETTVTSLKTKVGGTNPNGGSFEEVLSSTAHASAQSLAGGSRRTKEEELQC
notes: range 761-881; also called nt 111 (<Met^1)
B7: hD53 library interactor, pAD-GAL4 clone beginning at nt 81 of the hD53 cDNA (<Met1) (other)
chain: B6 chain
notes: range 761-881; also called nt 81 (<Met^1)
B8: hD54-ins2 interactor (GAL4 activation domain fusion, pACT2hD54-ins2) (other)
chain: ANFNQSGNIADSSLSFTFTNSSNGPNLITTQTNSQALSQPIASSNVHDNFMNNEITASKIDDGNNSKPLSPGWTDQTAYNAFGITTGMFNTTTMDDVYNYLFDDEDTPPNPKKEMDSAGQDINLNSPNKGLLSDSMTDVPVDTGVAARTPAVEGLTEAEEEELRAELTKVEEEIVTLRQVLAAKEKHCGELKRRLGLSTLGELKQNLSRSWHDVQVSSAYKKTQETLSQAGQKTSAALSTVGSAISRKLGDMRNSATFKSFEDRVGTIKSKVVGDRENGSDNLPSSAGSGDKPLSDPAPF
notes: range 768-881
B9: mD52(1-163) interactor (GAL4 activation domain fusion, pACT2mD52(1-163)) (other)
chain: ANFNQSGNIADSSLSFTFTNSSNGPNLITTQTNSQALSQPIASSNVHDNFMNNEITASKIDDGNNSKPLSPGWTDQTAYNAFGITTGMFNTTTMDDVYNYLFDDEDTPPNPKKEMDRGEQGLLKTEPVAEEGEDAVTMLSAPEALTEEEQEELRRELTKVEEEIQTLSQVLAAKEKHLAELKRKLGISSLQEFKQNIAKGWQDVTATNAYKKTSETLSQAGQKASAAFSSVGSVITKKLEDVKNSPTFKSFEEKVENLKSKVGGAKPAGGDFGEVLN
notes: range 768-881
B10: hD54+ins2 interactor (GAL4 activation domain fusion, pACT2hD54+ins2) (other)
chain: ANFNQSGNIADSSLSFTFTNSSNGPNLITTQTNSQALSQPIASSNVHDNFMNNEITASKIDDGNNSKPLSPGWTDQTAYNAFGITTGMFNTTTMDDVYNYLFDDEDTPPNPKKEMDSAGQDINLNSPNKGLLSDSMTDVPVDTGVAARTPAVEGLTEAEEEELRAELTKVEEEIVTLRQVLAAKEKHCGELKRRLGLSTLGELKQNLSRSWHDVQVSSAYVKTSEKLGEWNEKVTQSDLYKKTQETLSQAGQKTSAALSTVGSAISRKLGDMRNSATFKSFEDRVGTIKSKVVGDRENGSDNLPSSAGSGDKPLSDPAPF
notes: range 768-881
B11: hD53 interactor (GAL4 activation domain fusion, pACT2hD53) (other)
chain: ANFNQSGNIADSSLSFTFTNSSNGPNLITTQTNSQALSQPIASSNVHDNFMNNEITASKIDDGNNSKPLSPGWTDQTAYNAFGITTGMFNTTTMDDVYNYLFDDEDTPPNPKKEMEAQAQGLLETEPLQGTDEDAVASADFSSMLSEEEKEELKAELVQLEDEITTLRQVLSAKERHLVEIKQKLGMNLMNELKQNFSKSWHDMQTTTAYKKTHETLSHAGQKATAAFSNVGTAISKKFGDMSYSIRHSISMPAMRNSPTFKSFEERVETTVTSLKTKVGGTNPNGGSFEEVLSSTAHASAQSLAGGSRRTKEEELQC
notes: range 768-881

molecular target: GST protein (glutathione S-transferase alone) (UniProt P08515 1-218 = GST); experiment: GST pull-down, autoradiography
Sequence (P08515 whole entry): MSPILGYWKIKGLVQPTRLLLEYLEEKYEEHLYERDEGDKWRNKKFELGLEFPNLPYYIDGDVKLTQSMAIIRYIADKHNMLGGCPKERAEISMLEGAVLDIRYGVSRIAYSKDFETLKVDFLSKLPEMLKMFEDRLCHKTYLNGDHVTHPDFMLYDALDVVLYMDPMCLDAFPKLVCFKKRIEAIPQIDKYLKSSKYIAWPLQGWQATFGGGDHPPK
Procedure: Proteins were isolated by incubating E. coli samples in isotonic lysis buffer (10 mM potassium phosphate pH 8.0, 140 mM KCl, 3 mM MgCl_2, 1 mM DTT, 0.5% Nonidet P-40, 0.5 mM PMSF) for 15 min on wet ice, followed by brief sonication. Protein product sizes were verified by electrophoresing pre- and post-induction protein samples on 10% SDS-polyacrylamide gels, followed by Coomassie Brilliant Blue staining. Post-induction protein extracts were incubated with glutathione-agarose (Sigma) which had been previously saturated in 0.5% (w/v) BSA (fraction V, Boehringer-Mannheim). Recombinant proteins (2–5 μg) bound to 30 μl glutathione agarose were then incubated with 7 μl of each in vitro translation reaction, and 2.6 mg soluble BL21 protein extract, prepared as described in Ausubel, F. M., el al., *Current Protocols in Molecular Biology* Vol. 3 (1996), for 2 h at 4° C. Matrixes were washed 3 times with 1 ml cold buffer (50 mM potassium phosphate pH 7.5, 150 mM KCl, 10 mM MgCl_2, 10% (v/v) glycerol, 1% Triton X-100, 0.5 mM PMSF), and bound proteins were eluted in 12 μl SDS-loading buffer (50 mM Tris pH 6.8, 2% (w/v) SDS, 10% (v/v) glycerol, 10% (v/v) 2-mercaptoethanol) by boiling for 5 min. Eluted proteins (6 μl) were separated on 10% SDS-polyacrylamide gels, which were stained with Coomassie Brilliant Blue, dried, and exposed to autoradiographic film (BioMax, Kodak) for 10 days at −80° C.

Row | binding result | Binder
1 | no binding | B1
2 | no binding | B2
3 | no binding | B3

molecular target: T1, hD53 bait (GAL4 DNA-binding domain fusion, pAS2-1hD53) (human, UniProt P04386 1-147 (Saccharomyces cerevisiae entry)); experiment: yeast two-hybrid screening of a human breast carcinoma cDNA library in Y190 (His+ lacZ+)
T1 construct: Fusion expressed in yeast; also called full-length hD53 bait

Row | binding result | Binder
4 | binds | B4
5 | binds | B5
6 | binds | B6
7 | binds | B7

molecular target: T2, hD52 bait (GAL4 DNA-binding domain fusion, pAS2-1hD52) (human, UniProt P04386 1-147 (Saccharomyces cerevisiae entry)); experiment: yeast two-hybrid, Y190 co-transfectants, HIS3/lacZ reporters; interactor (GAL4-AD fusion) against bait (GAL4-DB fusion)
T2 construct: Fusion expressed in yeast; also called full-length hD52 bait
Procedure: (§1) Interactions between baits and interactors were assessed by qualitatively and/or quantitatively determining HIS3 and/or lacZ reporter gene activity in Y190 co-transfectants.
(§2) Interactions between D52-like proteins within the yeast two-hybrid system, as measured by quantitative β-galactosidase assays. […] Three (or two*) colonies from each co-transfected Y190 strain were cultured in the absence of histidine, and assayed separately for β-galactosidase activity (see Methods). The mean number of β-galactosidase activity units obtained for each co-transfection is presented, ± the standard error.

Row | binding result | Binder
8 | binds | B8
9 | binds | B9
10 | binds | B10
11 | binds | B5
12 | binds | B11

molecular target: T1, hD53 bait (GAL4 DNA-binding domain …); experiment: as above
Procedure: as §1, §2

Row | binding result | Binder
13 | binds | B8
14 | binds | B9
15 | binds | B10
16 | binds | B11

molecular target: T3, hD54+ins2 bait (GAL4 DNA-binding domain fusion, pAS2-1hD54+ins2) (human, UniProt P04386 1-147 (Saccharomyces cerevisiae entry)); experiment: as above
T3 construct: Fusion expressed in yeast
Procedure: as §1, §2

Row | binding result | Binder
17 | binds | B8
18 | binds | B9
19 | binds | B10
20 | binds | B5
21 | binds | B11

molecular target: T4, hD54-ins2 bait (GAL4 DNA-binding domain fusion, pAS2-1hD54-ins2) (human, UniProt P04386 1-147 (Saccharomyces cerevisiae entry)); experiment: as above
T4 construct: Fusion expressed in yeast
Procedure: as §1, §2

Row | binding result | Binder
22 | binds | B8
23 | binds | B9
24 | binds | B10
25 | binds | B5
26 | binds | B11
